For 1 substance, stoichiometry N results are on record in article PMC12340942.

The target of the test is RSV postfusion F (Flys-GCN without the StrepII-tag) (respiratory syncytial virus (RSV)). The test can be described thus: cryo-EM structure.

A word on the stoichiometry N: it is a count of units in the complex or per binding partner.

As for “RSV postfusion F (Flys-GCN without the StrepII-tag) (domain or fragment)”, the stoichiometry N was 3.
